{"source": "patent US20160355553A1", "about": "(Janssen / Centocor, published 2016)", "binders": {"B1": {"name": "CR9114 (antibody, V domains shown)", "VH": "QVQLVQSGAEVKKPGSSVKVSCKSSGGTSNNYAISWVRQAPGQGLDWMGGISPIFGSTAYAQKFQGRVTISADIFSNTAYMELNSLTSEDTAVYFCARHGNYYYYSGMDVWGQGTTVTVSS", "VL": "SYVLTQPPAVSGTPGQRVTISCSGSDSNIGRRSVNWYQQFPGTAPKLLIYSNDQRPSVVPDRFSGSKSGTSASLAISGLQSEDEAEYYCAAWDDSLKGAVFGGGTQLTVL"}, "B2": {"name": "CR8057 (antibody, V domains shown)", "VH": "EVQLVESGGGLVQPGGSLRLSCAASGFTDSVIFMSWVRQAPGKGLECVSIIYIDDSTYYADSVKGRFTISRHNSMGTVFLEMNSLRPDDTAVYYCATESGDFGDQTGPYHYYAMDV", "VL": "QSALTQPASVSGSPGQSITISCTGSSGDIGGYNAVSWYQHHPGKAPKLMIYEVTSRPSGVSDRFSASRSGDTASLTVSGLQAEDEAHYYCCSFADSNILI"}}, "key": {"FL4-06 B-m2": {"target": "FL4-06 B-m2 (influenza B virus, UniProt P03461 6-574)", "test": "FACS, transfected cells"}, "FL4-06 B-m2-CL1+5": {"target": "T1, FL4-06 B-m2-CL1+5 (influenza B virus, UniProt P03461 6-574)", "T1 chain": "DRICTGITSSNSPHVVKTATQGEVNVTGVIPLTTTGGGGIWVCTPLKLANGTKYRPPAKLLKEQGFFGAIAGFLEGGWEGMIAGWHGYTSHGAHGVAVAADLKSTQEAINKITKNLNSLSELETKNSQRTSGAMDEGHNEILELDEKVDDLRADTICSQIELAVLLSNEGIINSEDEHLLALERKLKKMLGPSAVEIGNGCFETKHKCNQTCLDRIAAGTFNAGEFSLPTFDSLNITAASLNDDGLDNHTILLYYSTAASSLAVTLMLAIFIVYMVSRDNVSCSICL", "test": "FACS, transfected cells"}, "FL4-06 B-m2-CL1+5-GCN4b": {"target": "T2, FL4-06 B-m2-CL1+5-GCN4b (influenza B virus, UniProt P03461 6-574)", "T2 chain": "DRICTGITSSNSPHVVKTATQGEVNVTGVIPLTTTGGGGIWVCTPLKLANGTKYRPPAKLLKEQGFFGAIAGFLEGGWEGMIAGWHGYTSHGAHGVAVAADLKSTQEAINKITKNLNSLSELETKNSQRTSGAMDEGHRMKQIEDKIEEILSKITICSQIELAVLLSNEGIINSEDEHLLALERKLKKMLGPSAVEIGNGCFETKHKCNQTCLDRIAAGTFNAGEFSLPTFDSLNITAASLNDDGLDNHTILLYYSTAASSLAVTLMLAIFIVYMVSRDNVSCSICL", "test": "FACS, transfected cells"}, "Mal2506-04 B-m2": {"target": "T3, Mal2506-04 B-m2 (influenza B virus, UniProt P03461 6-574)", "T3 chain": "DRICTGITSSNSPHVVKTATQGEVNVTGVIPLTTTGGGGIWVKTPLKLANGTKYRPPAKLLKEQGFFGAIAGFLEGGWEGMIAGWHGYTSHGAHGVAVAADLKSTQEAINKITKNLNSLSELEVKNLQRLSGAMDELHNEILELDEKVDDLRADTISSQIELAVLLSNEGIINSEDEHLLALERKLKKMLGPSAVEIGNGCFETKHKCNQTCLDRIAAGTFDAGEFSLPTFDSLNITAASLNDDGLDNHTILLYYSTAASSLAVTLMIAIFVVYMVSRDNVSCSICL", "test": "FACS, transfected cells"}, "Mal2506-04 B-m2-CL1+5": {"target": "T4, Mal2506-04 B-m2-CL1+5 (influenza B virus, UniProt P03461 6-574)", "T4 chain": "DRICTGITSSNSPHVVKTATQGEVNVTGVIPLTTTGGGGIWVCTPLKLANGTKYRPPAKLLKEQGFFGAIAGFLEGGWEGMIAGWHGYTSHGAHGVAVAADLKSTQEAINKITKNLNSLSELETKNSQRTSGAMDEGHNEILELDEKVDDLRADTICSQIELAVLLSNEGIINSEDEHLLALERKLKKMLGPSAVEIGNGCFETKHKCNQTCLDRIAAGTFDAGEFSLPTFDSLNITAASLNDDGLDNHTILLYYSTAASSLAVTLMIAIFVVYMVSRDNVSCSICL", "test": "FACS, transfected cells"}, "[1]": {"target": "T5, Mal2506-04 B-m2-CL1+5-GCN4a (influenza B virus, UniProt P03461 6-574)", "T5 chain": "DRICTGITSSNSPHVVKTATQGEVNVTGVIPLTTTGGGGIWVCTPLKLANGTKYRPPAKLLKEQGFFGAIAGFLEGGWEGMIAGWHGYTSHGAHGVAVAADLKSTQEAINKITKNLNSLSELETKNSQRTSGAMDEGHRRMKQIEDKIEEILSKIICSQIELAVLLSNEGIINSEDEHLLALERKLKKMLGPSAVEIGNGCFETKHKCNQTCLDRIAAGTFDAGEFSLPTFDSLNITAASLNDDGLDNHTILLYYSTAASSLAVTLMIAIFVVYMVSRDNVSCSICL", "test": "FACS, transfected cells"}, "[2]": {"target": "T6, Mal2506-04 B-m2-CL1+5-GCN4b (influenza B virus, UniProt P03461 6-574)", "T6 chain": "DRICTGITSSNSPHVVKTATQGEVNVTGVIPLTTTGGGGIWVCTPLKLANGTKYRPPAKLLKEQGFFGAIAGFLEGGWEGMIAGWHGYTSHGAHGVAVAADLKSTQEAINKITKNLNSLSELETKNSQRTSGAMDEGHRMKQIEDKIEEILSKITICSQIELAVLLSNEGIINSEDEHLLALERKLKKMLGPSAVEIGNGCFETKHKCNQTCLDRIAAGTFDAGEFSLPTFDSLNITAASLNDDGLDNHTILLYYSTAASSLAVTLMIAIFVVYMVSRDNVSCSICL", "test": "FACS, transfected cells"}, "[3]": {"target": "H1 Full-length (A/Brisbane/59/2007) (influenza A virus H1N1, UniProt B4URD6 18-565)", "test": "FACS on HEK293F"}, "[4]": {"target": "miniHA cluster1+2 (A/Brisbane/59/2007) (influenza A virus H1N1, UniProt A8C8J4 18-565)", "test": "FACS on HEK293F"}, "[5]": {"target": "miniHA cluster1+2+3 (A/Brisbane/59/2007) (influenza A virus H1N1, UniProt A8C8J4 18-565)", "test": "FACS on HEK293F"}, "H1-PR8-dH1": {"target": "H1-PR8-dH1 (influenza A virus H1N1, UniProt P03452 18-565)", "test": "FACS on HEK293F"}, "[6]": {"target": "HK68 H3mini2a-linker+cl9_+10+12+16+CG7-GCN4T (influenza A virus H3N2, UniProt Q91MA7 17-566)", "test": "FACS on HEK293F"}, "[7]": {"target": "HK68 H3mini2a-linker+cl9_+10+12+19+GCN4T (influenza A virus H3N2, UniProt P12584 1-550)", "test": "FACS on HEK293F"}, "[8]": {"target": "HK68 H3mini2a-linker+cl9_+10+12+17+CG7-GCN4T (influenza A virus H3N2, UniProt Q91MA7 17-566)", "test": "FACS on HEK293F"}, "[9]": {"target": "H3 HK68 mini2a-linker2+cl9_+10+12+GCN4T (influenza A virus H3N2, UniProt Q91MA7 17-566)", "test": "FACS on HEK293F"}}}
{"binder": "B1", "values": [{"measurement": "binding result", "setting": "FL4-06 B-m2", "result": "no binding"}, {"measurement": "binding result", "setting": "FL4-06 B-m2-CL1+5", "result": "no binding"}, {"measurement": "binding result", "setting": "FL4-06 B-m2-CL1+5-GCN4b", "result": "no binding"}, {"measurement": "binding result", "setting": "Mal2506-04 B-m2", "result": "no binding"}, {"measurement": "binding result", "setting": "Mal2506-04 B-m2-CL1+5", "result": "no binding"}, {"measurement": "binding result", "setting": "[1]", "result": "no binding"}, {"measurement": "binding result", "setting": "[2]", "result": "no binding"}]}
{"binder": "B2", "values": [{"measurement": "binding result", "setting": "[3]", "result": "no binding (tested: 5 ug/ml)"}, {"measurement": "binding result", "setting": "[4]", "result": "no binding (tested: 5 ug/ml)"}, {"measurement": "binding result", "setting": "[5]", "result": "no binding (tested: 5 ug/ml)"}, {"measurement": "binding result", "setting": "H1-PR8-dH1", "result": "no binding (tested: 5 ug/ml)"}, {"measurement": "binding result", "setting": "[6]", "result": "no binding (tested: 5 ug/ml)"}, {"measurement": "binding result", "setting": "[7]", "result": "no binding (tested: 5 ug/ml)"}, {"measurement": "binding result", "setting": "[8]", "result": "no binding (tested: 5 ug/ml)"}, {"measurement": "binding result", "setting": "[9]", "result": "no binding (tested: 5 ug/ml)"}]}
